B1: NP_009172.2 (parent)
chain: LPALFTDLYSQEITAEEAREALP
B2: DUSP5 (parent)
chain: YSEYPECCVDVKPISQEKIESERA

Variants of: B1
Experiment: protein stability index of a GFP-peptide fusion (GPS, HEK-293T) (PSI 1-6); higher = more stable
Conditions: c terminus: native

Protein stability index of substitutions, site by site:
Q11: H 2.76; G 3.59; D 3.31; E 2.88; C 2.95; N 2.92; P 3.82; S 3.04; L 2.65; W 2.63; F 2.52; K 2.4; V 2.79; I 2.52; A 2.7; M 2.54; R 2.26; Y 2.67; T 3.21
L1: I 2.63; N 2.86; W 2.68; Y 2.5; K 1.72; A 2.95; H 2.6; E 2.96; V 2.59; G 2.77; M 2.91; D 3.9; C 2.5; R 2.22; F 2.59; P 2.49; Q 2.5; S 2.32; T 2.4
P2: Q 2.69; D 3.64; N 2.59; F 2.54; K 2.5; W 2.66; L 2.48; Y 2.85; I 2.37; S 2.71; R 2.28; C 2.64; G 3.03; A 2.69; M 2.79; E 3.51; V 2.46; H 2.52; T 2.51
A3: D 4.1; R 2.43; S 2.74; C 2.64; F 2.76; N 2.96; K 2.1; P 2.62; E 3.66; V 2.49; G 2.68; L 2.56; H 2.81; W 2.42; Y 2.62; Q 2.22; M 2.47; I 2.43; T 2.56
E12: A 3.56; D 2.99; C 3.19
S10: L 2.3; A 2.52; H 2.85; N 2.61; D 2.8; K 2.48; W 2.26; M 2.26; T 2.38; Y 2.36; C 2.16; V 2.35; I 1.95; F 2.57; R 2.71; G 3.08; E 2.48; Q 2.57; P 3.79
L4: V 4.59; N 2.76; D 4.87; C 2.64; M 3.19; T 2.27; W 3.98; K 2.77; H 3.54; R 2.21; P 4.94; S 2.55; E 5.24; Q 3.62; F 2.99; Y 3.47; G 2.69; A 3.64; I 4.64
T6: M 3.69; K 3.32; N 4.77; E 3.68; I 2.7; V 2.24; F 4.22; C 3.02; R 3.15; W 4.06; Y 4.5; H 4.28; Q 2.18; L 3.54; P 5.24; D 5.37; S 2.55; A 2.34; G 4.09
F5: Q 5.24; K 5.25; R 5.42; L 5.16; C 5.41; D 5.58; N 5.52; T 5.25; G 5.28; Y 3.72; S 5.37; W 2.25; A 5.41; P 5.3; V 5.07; I 5.08; M 5.24; E 5.38
D7: L 2.61; G 4.02; C 3.44; M 2.71; Y 2.56; R 2.77; S 3.08; F 2.6; E 2.46; H 3.13; K 3.33; Q 2.63; V 2.58; W 2.48; T 2.57; P 4.4; A 2.88; N 3.52; I 2.49
L8: A 3.14; G 5.28; K 2.39; S 4.05; W 3.27; E 4.59; R 2.22; M 2.24; Y 2.53; T 3.69; H 2.56; V 2.81; I 2.59; P 5.43; N 3.46; D 5.11; Q 2.91; C 3.77; F 3.05
Y9: Q 5.15; K 5.39; A 2.34; P 5.13; W 2.65; T 2.74; R 5.15; D 5.38; S 3.98; M 3.13; V 2.21; I 1.88; G 5.3; L 2.39; E 5.17; N 5.01; H 4.49; C 2.42; F 2.81

Variants of: B2
Experiment: as above
Conditions: c terminus: a fixed tail appended

Protein stability index of substitutions, site by site:
S21: N 3.73; Y 3.76; K 4.49; Q 4.1; D 3.47; G 3.8; E 4.71; T 4.55; W 3.61; F 4.11; V 4.36; L 3.79; C 3.96; P 4.29; I 3.42; M 3.72; A 4.36; H 4.58; R 3.22
E22: V 3.05; C 3.51; D 4.24; Y 2.58; I 3.54; N 3.59; H 4; P 3.45; S 3.56; Q 3.54; A 4.36; L 2.27; M 3.65; W 2.88; R 3.18; K 3.43; F 3.6; T 4.17
R23: L 4.18; A 4.23; P 4.55; C 4.98; V 3.88; M 3.91; Q 4.34; F 3.73; Y 3.71; K 4.65; G 4.42; I 4.24; E 4.39; H 4.52; D 4.41; T 4.44; W 3.41; S 4.38; N 4.34
I19: F 4.16; H 3.01; E 4.69; N 4.61; K 4.9; Y 3.1; P 4.02; M 4.1; T 4.55; Q 4.95; A 4.65; G 4.34; V 3.31; W 4.24
E17: W 2.78; S 3.06; T 3.89; Y 3.1; V 2.86
A24: K 3.82; P 3.88; L 4.26; D 4.45; H 3.73; Q 4.18; G 3.82; E 4.9; I 4.16; W 3.44; Y 3; F 2.43; V 3.89; N 4.1
K18: V 4.16; S 3.98; P 3.84; A 4.17; G 3.39; I 4.02; T 4.52; W 3.73; Q 4.87; H 4.41; C 3.1; E 4.55; N 4.19; M 4.3; L 3.68
E20: T 3.59; W 2.04; M 2.8; I 3.49; R 3.56; Y 4.1; C 4.31; D 4.28; G 3.67; S 3.97; N 3.6; F 3.56; P 3.78; H 4; Q 3.65; A 4.89; K 4.02; V 2.78; L 3.94

— the supplement of paper PMC10567573
